# In PMC6237438:
# Assays:
# VRC01GL Fab (human) = experiment: BLI; Fab immobilised on anti-human Fab-CH1 (FAB2G) biosensors; 426c core in solution; Octet Red 96, 29°C, 500 r.p.m.; kinetic buffer (1X PBS, 0.01% BSA, 0.02% Tween 20, 0.005% NaN3); 1:1 binding model; relative apparent affinities
# [1] = target: VRC01GL IgG (inferred germline precursor of the VRC01 antibody) (human); experiment: BLI; IgG immobilised on anti-AHC biosensors (20 µg/ml in PBS); DS-SOSIP trimer or 426c core in solution, dilution series; Octet Red 96, 29°C, 500 r.p.m.; kinetic buffer (1X PBS, 0.01% BSA, 0.02% Tween 20, 0.005% NaN3); 1:1 binding model; relative apparent affinities
# [2] = target: VRC01GL IgG (inferred germline precursor of the VRC01 antibody); experiment: BLI; details: 426c core (293F-expressed) injected at 0.5, 1, 2.5, 4, 5, 10, 20, 40, 80, 160 µM
# 12A21GL IgG (human) = experiment: BLI; IgG immobilised on anti-AHC biosensors (20 µg/ml in PBS); DS-SOSIP trimer or 426c core in solution, dilution series; Octet Red 96, 29°C, 500 r.p.m.; kinetic buffer (1X PBS, 0.01% BSA, 0.02% Tween 20, 0.005% NaN3); 1:1 binding model; relative apparent affinities
Substance,Kd [1] [µM],Kd [2] [µM],further results
"426c core (wild-type NLGSs), HEK293 GnTI-/--expressed (domain or fragment)",2,–,Kd (VRC01GL Fab (human)): 15 µM
"426c core (wild-type NLGSs), HEK293F-expressed S278A; T462A",–,2.5,–
"426c S278A core, HEK293 GnTI-/--expressed (domain or fragment)",0.204,–,–
"426c core (wild-type NLGSs), HEK293F-expressed S278A",–,1.9,–
"426c S278T core, HEK293 GnTI-/--expressed (domain or fragment)",–,–,fold change of KD against the 426c core (12A21GL IgG (human)): 10 fold; fold change of KD against the 426c core [1]: 10 fold
EndoH-treated 426c core (HEK293 GnTI-/--expressed) (domain or fragment),0.245,–,–
"426c core (wild-type NLGSs), HEK293F-expressed (domain or fragment)",–,–,Kd (VRC01GL Fab (human)): 11 µM
"426c core (wild-type NLGSs), HEK293F-expressed S278A; T465A",–,8.9,–
426c DS-SOSIP D3 trimer (from UniProt Q2N0S6 1-860) (complex),0.043,–,–
